Source: paper doi:10.1101/2021.03.17.435802 (bioRxiv, 2021)

Molecular target: SARS-CoV-2 S1 WT (in-house) (SARS-CoV-2, UniProt P0DTC2)
Assay: SPR

B1: REGN10987 (antibody, V domains shown)
VH: QVQLVESGGGVVQPGRSLRLSCAASGFTFSNYAMYWVRQAPGKGLEWVAVISYDGSNKYYADSVKGRFTISRDNSKNTLYLQMNSLRTEDTAVYYCASGSDYGDYLLVYWGQGTLVTVSS
VL: QSALTQPASVSGSPGQSITISCTGTSSDVGGYNYVSWYQQHPGKAPKLMIYDVSKRPSGVSNRFSGSKSGNTASLTISGLQSEDEADYYCNSLTSISTWVFGGGTKLTVL
B1: binds.
